Target: Melanocortin-1 receptor (MC-1R) (Mus musculus, UniProt Q01727)
Experiment: radioligand competition binding with [125I]-α-MSH on B16 cells

Sequence of Melanocortin-1 receptor (MC-1R) (Q01727 whole entry): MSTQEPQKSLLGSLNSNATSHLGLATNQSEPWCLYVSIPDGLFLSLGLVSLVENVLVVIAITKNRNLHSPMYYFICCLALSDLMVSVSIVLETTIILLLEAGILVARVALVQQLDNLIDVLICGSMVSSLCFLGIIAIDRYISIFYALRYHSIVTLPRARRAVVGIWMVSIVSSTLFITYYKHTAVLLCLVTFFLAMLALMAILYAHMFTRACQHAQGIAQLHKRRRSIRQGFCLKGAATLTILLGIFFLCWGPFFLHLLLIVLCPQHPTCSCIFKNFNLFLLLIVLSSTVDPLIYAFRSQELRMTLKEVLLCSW

Kd: 88 nM
Binder: SYSMEHFR [ACTH(1-8)]
